In patent publication US20100291189A1 (RIKEN, published 2010):

Molecular target: the molecule itself
Assay: SDS-PAGE/CBB staining of sucrose gradient liposome fractions; self-association (homo-tetramer)

B1: E. coli-derived water channel (AQPZ), full-length, with N-terminal native His tag and TEV protease recognition site, cell-free synthesized (other)
chain: MKDHLIHNVHKEEHAHAHNKDYDIPTTENLYFQGSSGSSGMFRKLAAECFGTFWLVFGGCGSAVLAAGFPELGIGFAGVALAFGLTVLTMAFAVGHISGGHFNPAVTIGLWAGGRFPAKEVVGYVIAQVVGGIVAAALLYLIASGKTGFDAAASGFASNGYGEHSPGGYSMLSALVVELVLSAGFLLVIHGATDKFAPAGFAPIAIGLALTLIHLISIPVTNTSVNPARSTAVAIFQGGWALEQLWFFWVVPIVGGIIGGLIYRTLLEKRD
notes: No cleavage of the tag by TEV is reported before the gels; Purified in DDM for Blue-Native PAGE, and in a phosphatidylcholine liposome fraction for SDS-PAGE; also called cell-free synthesized AQPZ
binding result: binds
